Experiment [1] concerns the target PKC-ζ, purified isoform (UniProt Q05513). Put plainly: competition ELISA on coated purified PKC-ζ vs anti-PKC ζ antibody; PRE 200 µM. (In general: In an ELISA, binding on a coated surface is turned into a signal by an enzyme label.)
Experiment [2] has the same target. Put plainly: competition ELISA on coated purified PKC-ζ vs anti-PKC ζ antibody; PRE 50 µM.
For experiment [3] the target is unchanged. The experiment can be described thus: competition ELISA on coated purified PKC-ζ vs anti-PKC ζ antibody; PRE 100 µM.
The target of experiment [4] is PKC-β (endogenous, IMR-32 lysate) (human) (UniProt P05771). The experiment can be described thus: WB competition Protocol B, IMR-32 extract, vs anti-PKC-β Ab; 100 µg peptide.
Experiment [5] shares this target. Put plainly: WB competition Protocol A, IMR-32 lysate, vs anti-PKC-β Ab; 300 µg peptide.
Experiment [6] shares this target. Put plainly: WB competition Protocol B, IMR-32 extract, vs anti-PKC-β Ab; 300 µg peptide.
The target is the same in experiment [7]. Put plainly: WB competition Protocol A, IMR-32 lysate, vs anti-PKC-β Ab; 75 µg peptide.
Experiment [8] shares this target. Put plainly: WB competition Protocol B, IMR-32 extract, vs anti-PKC-β Ab; 200 µg peptide.
In experiment [9] the target is PKC-βI (purified isoform) (Homo sapiens (Human)) (UniProt P05771). The experiment can be described thus: competitive ELISA, coated purified PKC-βI, vs anti-PKC βI (SC-209); PRE 100 µM.
Experiment [10] shares this target. Put plainly: competitive ELISA, coated purified PKC-βI, vs anti-PKC βI (SC-209); PRE 50 µM.
The target is the same in experiment [11]. The experiment can be described thus: competitive ELISA, coated purified PKC-βI, vs anti-PKC βI (SC-209); PRE 200 µM.
The target in experiment [12] is PKC-ζ, purified isoform, Q05513. The experiment can be described thus: cell-based or functional assay.
Experiment [13] concerns the target PKC-δ, purified isoform, Q05655. Put plainly: cell-based or functional assay.
The target in another experiment is PKC-δ, Q05655. Put plainly: cell-based or functional assay.
Experiment [14] addresses PKC-βI (purified isoform) (Homo sapiens (Human)), P05771. The experiment can be described thus: competitive ELISA, coated purified PKC-βI, vs anti-PKC βI (SC-209); PRE 100 µM. The settings on record: remark: other sources report otherwise.
Experiment [15] shares this target. The experiment can be described thus: competitive ELISA, coated purified PKC-βI, vs anti-PKC βI (SC-209); PRE 50 µM. The settings on record: remark: other sources report otherwise.
Experiment [16] has the same target. Put plainly: competitive ELISA, coated purified PKC-βI, vs anti-PKC βI (SC-209); PRE 200 µM. The settings on record: remark: other sources report otherwise.
Experiment [17] addresses PKC-β (endogenous, IMR-32 lysate) (human) (UniProt P05771). The experiment can be described thus: WB competition Protocol A, IMR-32 lysate, vs anti-PKC-β Ab; 600 µg peptide.

Where no end group is shown, it is not given here.

Chain of PKC-β (endogenous, IMR-32 lysate) (human) (P05771 2-671): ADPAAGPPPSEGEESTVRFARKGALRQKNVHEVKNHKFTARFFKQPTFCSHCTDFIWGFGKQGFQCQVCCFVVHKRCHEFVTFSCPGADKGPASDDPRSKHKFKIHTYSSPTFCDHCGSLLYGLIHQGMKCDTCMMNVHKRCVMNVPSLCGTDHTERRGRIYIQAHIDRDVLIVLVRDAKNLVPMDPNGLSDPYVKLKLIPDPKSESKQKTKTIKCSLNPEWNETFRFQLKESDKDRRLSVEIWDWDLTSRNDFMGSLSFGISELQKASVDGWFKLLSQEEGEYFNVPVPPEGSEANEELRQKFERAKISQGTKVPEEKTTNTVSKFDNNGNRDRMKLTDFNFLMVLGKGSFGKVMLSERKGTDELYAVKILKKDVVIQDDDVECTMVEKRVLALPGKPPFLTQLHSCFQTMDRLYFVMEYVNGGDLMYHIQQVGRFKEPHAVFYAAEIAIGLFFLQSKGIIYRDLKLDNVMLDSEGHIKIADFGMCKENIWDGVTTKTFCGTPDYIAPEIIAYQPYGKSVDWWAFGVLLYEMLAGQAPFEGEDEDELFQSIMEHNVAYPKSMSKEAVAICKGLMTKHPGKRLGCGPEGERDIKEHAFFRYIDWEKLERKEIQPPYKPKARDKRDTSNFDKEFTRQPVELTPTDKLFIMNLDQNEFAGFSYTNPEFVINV
Chain of PKC-βI (purified isoform) (Homo sapiens (Human)) (P05771 2-671 limits assumed): as the sequence (P05771 2-671) above
Chain of PKC-βI (purified isoform) (Homo sapiens (Human)), P05771 (P05771 2-671 limits assumed): as the sequence (P05771 2-671) above
Chain of PKC-δ, purified isoform, Q05655 (Q05655 whole entry, stated change not applied, canonical isoform): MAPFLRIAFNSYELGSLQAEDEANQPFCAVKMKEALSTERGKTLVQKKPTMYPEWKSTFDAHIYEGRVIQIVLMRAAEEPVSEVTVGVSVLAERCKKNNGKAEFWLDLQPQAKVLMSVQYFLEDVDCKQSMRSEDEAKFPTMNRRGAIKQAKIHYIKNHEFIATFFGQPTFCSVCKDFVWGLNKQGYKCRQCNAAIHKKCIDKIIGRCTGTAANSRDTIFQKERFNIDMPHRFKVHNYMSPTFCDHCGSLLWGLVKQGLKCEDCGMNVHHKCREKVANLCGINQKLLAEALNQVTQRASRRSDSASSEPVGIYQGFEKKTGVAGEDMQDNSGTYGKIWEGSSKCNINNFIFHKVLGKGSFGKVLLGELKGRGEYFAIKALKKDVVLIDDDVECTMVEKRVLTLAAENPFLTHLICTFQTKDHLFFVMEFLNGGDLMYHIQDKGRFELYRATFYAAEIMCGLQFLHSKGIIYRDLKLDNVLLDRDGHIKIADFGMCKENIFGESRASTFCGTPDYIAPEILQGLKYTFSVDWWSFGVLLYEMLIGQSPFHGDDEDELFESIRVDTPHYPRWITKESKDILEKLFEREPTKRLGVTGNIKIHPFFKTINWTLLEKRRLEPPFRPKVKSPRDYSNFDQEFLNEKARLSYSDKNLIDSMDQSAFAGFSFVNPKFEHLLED
Chain of PKC-δ, Q05655 (Q05655 whole entry, stated change not applied, canonical isoform): as above
Chain of PKC-ζ, purified isoform (Q05513 whole entry, canonical isoform): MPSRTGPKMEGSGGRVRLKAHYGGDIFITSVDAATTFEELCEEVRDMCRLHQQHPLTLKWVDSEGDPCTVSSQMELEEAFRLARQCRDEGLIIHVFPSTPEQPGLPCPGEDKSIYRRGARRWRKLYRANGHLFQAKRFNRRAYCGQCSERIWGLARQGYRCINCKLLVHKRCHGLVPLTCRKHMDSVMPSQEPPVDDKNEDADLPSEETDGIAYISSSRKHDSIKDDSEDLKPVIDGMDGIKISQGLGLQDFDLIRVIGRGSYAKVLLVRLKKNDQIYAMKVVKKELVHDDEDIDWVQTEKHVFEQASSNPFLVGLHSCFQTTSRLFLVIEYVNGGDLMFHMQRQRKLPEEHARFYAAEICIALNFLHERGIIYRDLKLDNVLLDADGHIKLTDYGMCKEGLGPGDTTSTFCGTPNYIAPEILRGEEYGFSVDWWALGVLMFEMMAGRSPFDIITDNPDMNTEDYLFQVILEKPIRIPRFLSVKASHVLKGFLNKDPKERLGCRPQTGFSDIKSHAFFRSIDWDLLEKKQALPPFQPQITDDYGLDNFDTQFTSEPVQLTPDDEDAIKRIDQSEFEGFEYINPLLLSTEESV
Chain of PKC-ζ, purified isoform, Q05513 (Q05513 whole entry, canonical isoform): as above

Ac-RDAQNLI-NH2 [PRE 13]: the relative binding capacity with PKC-ζ, purified isoform [1] turned out to be 4.29%; with PKC-ζ, purified isoform [2], 0%; with PKC-ζ, purified isoform [3], 0%.
With KDAQNLIGISL-NH2 [PRE 2], the Band Intensity stood at 0.0322 in experiment [4]; 0.403 in experiment [5]; 0 in experiment [6]; 0.8 in [7]; 0 in experiment [8]. Besides, the Inhibition (%) turned out to be 54.7% in experiment [4]; 65.3% in [5]; 100% in experiment [6]; 31% in [7]; 100% in experiment [8]. For the same molecule, the Relative Intensity (%) in experiment [4] worked out at 45.3%; in experiment [5] it was 34.7%; in experiment [6], 0%; in experiment [7] it was 69%; in experiment [8], 0%.
For the molecule Ac-AKGIQEVKGGKDAQNLIGISI-NH2 [PRE 5], the relative binding capacity stood at 0% with PKC-ζ, purified isoform [1]; 0% in the experiment with PKC-ζ, purified isoform [2]; 0% in the experiment with PKC-ζ, purified isoform [3].
Turning to Ac-KDANQLIGISI-NH2 [PRE 6], the relative binding capacity with PKC-ζ, purified isoform [1] turned out to be 0%; with PKC-ζ, purified isoform [2], 0%; with PKC-ζ, purified isoform [3] it was 0%.
With Ac-ISIGILQNADK-NH2 [PRE 7], the relative binding capacity with PKC-ζ, purified isoform [1] amounted to 1.54%; with PKC-ζ, purified isoform [2], 1.83%; in the experiment with PKC-ζ, purified isoform [3] it was 0%. The relative binding capacity (100-%n, DMSO subtracted) in [9] is 0%; in experiment [10] it was 2.1%; in experiment [11], 0%.
In experiment [5], RRKKGGKDFVVKR [PRE 1] displayed a Band Intensity of 0.528, an Inhibition (%) of 54.5% and a Relative Intensity (%) of 45.5%. In experiment [7], this molecule gave a Band Intensity of 0.825, an Inhibition (%) of 28.9% and a Relative Intensity (%) of 71.1%.
As to FRRCFRL [compound PKI 4], in [12], the % Inhibition of PKC activity at 150 µM was 60%, the % Inhibition of PKC activity at 300 µM was determined as 60% and the % Inhibition of PKC activity at 600 µM was determined as 58%. In [13], this molecule registered a % Inhibition of PKC activity at 150 µM of 90%, a % Inhibition of PKC activity at 300 µM of 90% and a % Inhibition of PKC activity at 600 µM of 95%.
In the experiment with PKC-δ, Q05655, Ac-FRRCFRLGGGGGGGAKGIQEVKGGDAQNLIGISI-NH2 [Compound TIM 18 (PRE 3 and PKI 4)] came in with a % Inhibition of kinase activity (Kinase-Glo), compound at 5.0 µM of 56.3% and a % Inhibition of kinase activity (Kinase-Glo), compound at 30.0 µM of 85.1%.
Turning to ILEDKGGDAQNLIGISI [PRE 8], the relative binding capacity (100-%n, DMSO subtracted) in [14], in experiment [15] and in [16] was 0% throughout.
On to Ac-RDAQNLIGISI-NH2 [PRE 11], for which the relative binding capacity was 0% with PKC-ζ, purified isoform [1]; 0% with PKC-ζ, purified isoform [2]; 0% with PKC-ζ, purified isoform [3].
In the case of Ac-KDAQNLI-NH2 [PRE 12], the relative binding capacity came out at 0.33% with PKC-ζ, purified isoform [1]; 4.2% in the experiment with PKC-ζ, purified isoform [2]; 8.77% with PKC-ζ, purified isoform [3].
In the experiment with PKC-δ, Q05655, Ac-FRRCFRLGGGGGGGRRKKGGKDFVVKR-NH2 [Compound TIM 20 (PRE 1 and PKI 4)] came in with a % Inhibition of kinase activity (Kinase-Glo), compound at 5.0 µM of 46% and a % Inhibition of kinase activity (Kinase-Glo), compound at 30.0 µM of 45.4%.
Turning to Ac-KDAQNLIGISI-NH2 [PRE 4], the relative binding capacity with PKC-ζ, purified isoform [1] stood at 5.85%; with PKC-ζ, purified isoform [2], 0%; in the experiment with PKC-ζ, purified isoform [3] it was 0%.
In the case of FRRK(adenine PNA)FRL [compound PKI 3], in experiment [12], the % Inhibition of PKC activity at 150 µM was determined as 37%, the % Inhibition of PKC activity at 300 µM is 40% and the % Inhibition of PKC activity at 600 µM is 56%. In [13], the % Inhibition of PKC activity at 150 µM was found to be 32%, the % Inhibition of PKC activity at 300 µM came out at 41% and the % Inhibition of PKC activity at 600 µM came to 70%.
With Ac-AKGIQEVKGGDAQNLIGISI-NH2 [PRE 3], the Band Intensity in experiment [4] turned out to be 0; in experiment [5] it was 1.9; in experiment [6] it was 0; in experiment [17], 1.85; in experiment [7], 1.9; in [8] it was 0. Moreover, the Inhibition (%) in experiment [4] turned out to be 100%; in experiment [5], 0%; in experiment [6], 100%; in [17], 0%; in experiment [7], 0%; in experiment [8] it was 100%. For the same molecule, the Relative Intensity (%) in [4] worked out at 0%; in [5] it was 102%; in experiment [6] it was 0%; in [17], 99.6%; in [7] it was 102%; in [8] it was 0%. Also, the relative binding capacity with PKC-ζ, purified isoform [1] stood at 29.1%; with PKC-ζ, purified isoform [2] it was 14%; with PKC-ζ, purified isoform [3], 23.9%.
With Ac-ISIGILNQADK-NH2 [PRE 10], the relative binding capacity in the experiment with PKC-ζ, purified isoform [1] worked out at 0%; with PKC-ζ, purified isoform [2] it was 0%; in the experiment with PKC-ζ, purified isoform [3] it was 0%.

The values above are taken from US20110039770A1, “INHIBITORS OF PROTEIN KINASE C ISOFORMS AND USES THEREOF” (PHARMAGAP INC., priority 2005, published 2011).
